In this data set the target is T1, DROSHA fragment D3;DGCR8 fragment G1 (human;human, UniProt Q9NRR4;Q8WYQ5 390-1365;728-750, |).
T1 sequence 1: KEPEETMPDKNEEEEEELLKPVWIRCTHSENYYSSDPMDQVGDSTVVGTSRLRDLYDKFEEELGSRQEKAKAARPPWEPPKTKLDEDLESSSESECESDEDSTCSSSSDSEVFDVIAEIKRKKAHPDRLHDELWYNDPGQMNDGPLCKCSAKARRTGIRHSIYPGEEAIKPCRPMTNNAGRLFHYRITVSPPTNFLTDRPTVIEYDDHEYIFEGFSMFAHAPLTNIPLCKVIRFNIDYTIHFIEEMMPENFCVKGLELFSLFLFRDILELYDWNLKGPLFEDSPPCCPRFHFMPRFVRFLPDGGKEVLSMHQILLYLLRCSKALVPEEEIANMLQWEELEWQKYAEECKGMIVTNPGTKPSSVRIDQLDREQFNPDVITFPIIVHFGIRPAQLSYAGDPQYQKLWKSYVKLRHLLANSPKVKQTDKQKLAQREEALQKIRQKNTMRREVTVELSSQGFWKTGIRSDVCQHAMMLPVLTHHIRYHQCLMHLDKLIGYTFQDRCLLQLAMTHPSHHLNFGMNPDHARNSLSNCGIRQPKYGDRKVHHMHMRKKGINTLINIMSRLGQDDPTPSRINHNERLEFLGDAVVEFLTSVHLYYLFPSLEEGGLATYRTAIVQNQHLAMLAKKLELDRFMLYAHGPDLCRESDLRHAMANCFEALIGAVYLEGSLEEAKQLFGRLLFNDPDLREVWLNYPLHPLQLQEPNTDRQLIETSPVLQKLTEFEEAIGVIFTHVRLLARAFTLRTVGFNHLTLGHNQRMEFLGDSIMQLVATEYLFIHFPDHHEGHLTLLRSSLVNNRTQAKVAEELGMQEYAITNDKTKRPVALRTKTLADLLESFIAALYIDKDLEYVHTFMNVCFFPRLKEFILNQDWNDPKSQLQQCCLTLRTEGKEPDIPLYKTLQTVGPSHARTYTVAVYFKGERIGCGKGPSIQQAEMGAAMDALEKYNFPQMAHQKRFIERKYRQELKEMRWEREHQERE
T1 sequence 2: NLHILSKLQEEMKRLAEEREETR
The data set is described as follows: EMSA; 2 mM EDTA; 1.5 pmol RNA, 5-25 pmol D3-G1 in 10 uL; 50 mM Tris-HCl pH 7.5, 150 mM NaCl, 0.2 mg/ml BSA, 10% glycerol, 2 mM EDTA, 1 mM DTT; on ice 60 min; 4% native PAGE in 1x TBE at 4 C. The settings on record: protein: recombinant;recombinant; tags: ;; copies: 1;2; hairpin.

B1: Short pri-mir-146a_C (structured_RNA)
RNA: GGAGAACUGAAUUCCAUGGGUUGUGUCAGUGUCAGACCUCUGAAAUUCAGUUCUUCAG
In the case of B1, the binding result is recorded as “binds”.

The values above are taken from article PMC7668254.
